This is an account of results in patent US8691225B2, “Antibodies against the ectodomain of ErbB3 and uses thereof” (Merrimack Pharmaceuticals, Inc., priority 2007, dated 2014).

The target of one data set is TGF-α (Homo sapiens, UniProt P01135). The experiment in a line: binding specificity ELISA. Conditions: IgG2 isotype of Ab #6. As to the method:
(§1) 96-well NUNC MAXISORB plates are coated by overnight incubation at room temperature with 50 μl/well of 5 μg/ml of individual proteins. The proteins are recombinant human EGFR ectodomain, BSA, recombinant human ErbB3 ectodomain and TGF-α. The next morning, plates are washed 3 times with […] of PBST (0.05% Tween-20) in the BIOTEK plate washer. The wells are blocked for 1 hr at room temperature with 2% BSA in PBS and washed again as before. […] All samples are run in duplicate and incubated for 2 hrs at 4° C. on a plate shaker. The plates are washed again as before. 50 μl of human IgG-Fc detection antibody (HRP conjugated, Bethyl Laboratories, Inc; 1:75000 dilution in 2% BSA, PBST) is added and the plates are incubated for 1 hr at room temperature. The plates are washed again as before. 50 μL of SUPERSIGNAL ELISA Pico substrate is added and the plate is read on the FUSION plate reader (Packard/Perkin Elmer). The data is analyzed using the EXCEL program. Duplicate samples are averaged and the error bars represent the standard deviation between the two replicates.
Background: ELISA stands for enzyme-linked immunosorbent assay.

Data set [1] deals with T1, recombinant human EGFR ectodomain (Homo sapiens, UniProt P00533).
T1 construct: recombinant human EGFR ectodomain
The experiment in a line: binding specificity ELISA. The following applies: IgG2 isotype of Ab #6. As to the method: as §1

In data set [2] the target is T2, recombinant human ErbB3 ectodomain (Homo sapiens, UniProt P21860).
T2 construct: recombinant human ErbB3 ectodomain
Nature of the data set: binding specificity ELISA. The following applies: IgG2 isotype of Ab #6. Here is the method:
as §1

Data set [3] has as its system ErbB3 phosphorylation in ovarian AdrR cells. Nature of the data set: BTC or HRG induced ErbB3 phosphorylation in AdrR cells in vitro. It counts as cell-based, human. Here is the method: Following pre incubation, the media are removed and the cells are stimulated for 5 minutes at 37° C., 5% CO2 with 50 nM BTC or 333 nM TGF-α. HRG controls (5 minutes, 5 nM), 10% serum and 0% serum controls are also used. Cells are washed with 1× cold PBS and lysed in 30 μl cold lysis buffer (M-PER buffer (Pierce) plus sodium vanadate (NaVO4, Sigma), 2-glycerophosphate, phenylarsine oxide, BpV and protease inhibitors) by incubating on ice for 30 minutes. Lysates are stored overnight at −80° C.

Data set [4] can be described thus: PK analyses of serum and intra-tumoral levels from xenograft studies. In kind it is in vivo, mouse. Conditions: serum from animals of the xenograft studies. From the text:
The data (obtained using the methods described above or minor variations thereof) from three different models derived from human tumor cell lines, AdrR (ovarian), Du145 (prostate) and OvCAR8 (ovarian) data are shown in FIGS. 17A-C and Colo357 (pancreatic) xenograft study data are shown in FIG. 17D.

The target of data set [5] is T3, epiregulin binding to AdrR cells (Homo sapiens, UniProt P21860).
T3 construct: host or cells: AdrR (NCI/AdrR) ovarian cancer cells
The experiment in a line: biotinylated epiregulin binding to AdrR cells by FACS. It counts as cell-based. The following applies: 12.5 μM antibodies, 1 μM Epi. For orientation: In flow cytometry, cells or beads pass a laser one at a time.
Procedure: After 30 minutes, 50 μl of 2 μM biotinylated Epi is added to the cells and incubated for another 30 minutes on ice. This yields a final concentration of 12.5 μM antibodies and 1 μM Epi. Cells are then washed twice with 500 μl BD stain buffer and incubated with 100 μl of a 1:200 dilution of streptavidin-PE (PE=phycoerythrin, a fluorescent protein) (Invitrogen) in BD stain buffer for 45 minutes. Finally, cells are washed twice, resuspended in 300 μl of BD stain buffer and analyzed in a FACSCALIBUR flow cytometer. As a positive control, 1×10^5 AdrR cells are incubated with 1 μM Epi for 30 minutes on ice, washed twice and incubated with a 1:200 dilution of streptavidin-PE for 45 minutes. To assess background staining from the streptavidin-PE conjugate, cells are incubated with 100 μl of a 1:200 dilution of streptavidin-PE only for 45 minutes.

The test system of data set [6] is HB-EGF binding to AdrR cells. Nature of the data set: biotinylated HB-EGF binding to AdrR cells by FACS. In kind it is cell-based, human. Conditions: 12.5 μM antibodies, 200 nM HB-EGF. Here is the method: After 30 minutes, 50 μl of 400 nM biotinylated HB-EGF is added to the cells and incubated for another 30 minutes on ice. This yields a final concentration of 12.5 μM antibodies and 200 nM HB-EGF. Cells are then washed twice with 500 μl BD stain buffer and incubated with 100 μl of a 1:200 dilution of streptavidin-PE (PE=phycoerythrin) (Invitrogen) in BD stain buffer for 45 minutes. Finally, cells are washed twice, resuspended in 300 μl of BD stain buffer and analyzed in a FACSCALIBUR flow cytometer. As a positive control, 1×10^5 AdrR cells are incubated with 200 nM HB-EGF for 30 minutes on ice, washed twice and incubated with a 1:200 dilution of streptavidin-PE for 45 minutes. To assess background staining from the streptavidin-PE conjugate, cells are incubated with 100 μl of a 1:200 dilution of streptavidin-PE only for 45 minutes.

Another data set deals with COLO-357 cells. Nature of the data set: VEGF secretion assay (VEGF ELISA). It counts as cell-based, human. Conditions: untreated and HRG treated COLO-357. The source says:
(§2) In contrast, HRG is able to induce more than a doubling of VEGF secretion in MCF-7 and T47D cells.

A further data set concerns MCF-7 cells. Nature of the data set: VEGF secretion assay (VEGF ELISA). Conditions: untreated and HRG treated MCF-7. It counts as cell-based, human.
Source text: as §2

In another data set the test system is AdrR spheroids. The experiment in a line: spheroid growth assay. In kind it is cell-based, human. The following applies: 8 uM. As to the method:
(§3) Subconfluent cells are trypsinized, counted, and resuspended in filtered medium. The cell concentration is adjusted to 100,000 cells/ml, and one 20 ul drop (containing 2000 cells) is added to each ring on the underside of the lid of a 96-well plate. The lids with these hanging droplets are then placed back on the original 96-well plate, which contained 100 ul of PBS in each well to maintain moisture. Four days after initial plating, the hanging droplets containing the spheroids are replated into new 96-well plates. This replating involves transferring the lid containing the hanging droplets to a fresh 1% agarose/RPMI-coated 96-well plate that contains 150 ul of medium per well. The plate and lid are then centrifuged together at 500 rpm for 1 minute to transfer the spheroid-containing drops from the lids to the wells. Plates are then further incubated at 37° C. in a humidified CO2 incubator. Spheroids are photographed in an inverted phase contrast microscope. A micrometer scale is also photographed at the same magnification to determine spheroid size. The diameter of the spheroids is determined using METAMORPH image analysis software (MDS Analytical Technologies).
(§4) The diameters of the spheroids are measured using light microscopy (10× objective) at day 1 and day 13.

A further data set concerns DU145 spheroids. The experiment in a line: spheroid growth assay. The following applies: DU145, 8 uM, 3.4 nM HRG. It counts as cell-based, human. As to the method: as §3, §4
Data set [7] has as its system ACHN (a renal tumor cell line) xenograft tumors. The experiment in a line: ACHN xenograft combination therapy. Conditions: Ab #6 300 μg IP every three days; erlotinib 25 mg/kg orally once daily. In kind it is in vivo, mouse. Here is the method:
In a first experiment, mice bearing ACHN (a renal tumor cell line) xenograft tumors are prepared by establishing tumors subcutaneously in the flanks of nude mice (Charles River Laboratories).

B1: Ab #6: human anti-ErbB3 antibody from Fab-phage library, CDRs SEQ ID NOs:7-12; used as IgG1 and IgG2 isotypes; in phase I trials as MM-121 (antibody, V domains shown)
VH: EVQLLESGGGLVQPGGSLRLSCAASGFTFSHYVMAWVRQAPGKGLEWVSSISSSGGWTLYADSVKGRFTISRDNSKNTLYLQMNSLRAEDTAVYYCTRGLKMATIFDYWGQGTLVTVSS
VL: QSALTQPASVSGSPGQSITISCTGTSSDVGSYNVVSWYQQHPGKAPKLIIYEVSQRPSGVSNRFSGSKSGNTASLTISGLQTEDEADYYCCSYAGSSIFVIFGGGTKVTVL
Regarding B1, the “binding in ELISA” value with TGF-α was “did not show any appreciable binding”; in [1], “did not show any appreciable binding”; in data set [2], “bound recombinant ErbB3”. Also, the “inhibition of betacellulin-mediated phosphorylation of ErbB3” value in data set [3] (BTC stimulation) was “significantly inhibited”. The “inhibition of heregulin-mediated phosphorylation of ErbB3” value in data set [3] (HRG stimulation) is “significantly inhibited”. Moreover, the serum retention result in data set [4] is “dose-dependent increase in the serum retention”. The “inhibition of epiregulin binding to AdrR cells” value in data set [5] is given as “inhibited”. Further, in data set [6], the “inhibition of HB-EGF binding to AdrR cells” value is reported as “does not inhibit this binding”. For the same molecule, the “inhibition of VEGF secretion” value in the data set with COLO-357 cells was “potent inhibitory effect at high levels in all three cell lines with the highest being in COLO-357”; with MCF-7 cells, “potent inhibitory effect at high levels in all three cell lines”. Besides, the “inhibition of HRG-induced spheroid growth” value in the data set on AdrR spheroids (3.4 nM HRG) is on record as “inhibits the HRG effect”; in the data set on DU145 spheroids it was “inhibits HRG induced spheroid growth”. The “inhibition of spheroid growth” value in the data set with AdrR spheroids (day 1 to day 13) was “inhibits spheroid growth in AdrR cells”. For the same molecule, the “inhibition of tumor growth (tumor volume)” value in data set [7] is reported as “inhibit tumor growth”.
